Here are results for 3 molecules from US20040018971A1 (published 2004).

By IC50 is commonly meant the concentration that gives 50% inhibition.

Assay [1] deals with T1, HLA-A*0201 (human).
T1 construct: also called HLA-A2.1; A2.1
Kind of assay: competitive inhibition of 125I-labeled probe peptide binding to purified HLA-A*0201.

The target in assay [2] is T2, HLA-A*0201 (human).
T2 construct: also called HLA-A2.1
Kind of assay: inhibition of 125I-labelled standard peptide binding to purified HLA, gel filtration; ratio = IC50 of standard / IC50 of test peptide. On the technique in general: Size exclusion chromatography separates by hydrodynamic size, large species first.

For SLTEILKGGV [Her2/neu.144], the IC50 in the assay with HLA-A*0201 [1] is not above 500 nM.

As to SLTEILKGGV (also called Her2/neu.144) [HER2/neu peptide, position 144, 10 amino acids], the relative binding ratio in the assay with HLA-A*0201 [2] was 0.015 ratio to standard peptide.

Consider SLTLQGLGI [HER2/neu peptide, position 442, 9 amino acids], for which the relative binding ratio in the assay with HLA-A*0201 [2] was 0.0003 ratio to standard peptide.
